Reference: the Human Domainome abundance scans (Beltran et al. 2025)
± gives the uncertainty stated by the source.

B1: Far upstream element-binding protein 2, residues 142 to 214; numbered along this chain, Q92945 (parent)
chain: RTSMTEEYRVPDGMVGLIIGRGGEQINKIQQDSGCKVQISPDSGGLPERSVSLTGAPESVQKAKMMLDDIVSR

Variants of: B1
Experiment: abundance fitness (aPCA) (normalised: wild type 0, dead -1); higher = more abundant; growth selection in yeast, the domain comes from the species named
Details: Homo sapiens

Variant	abundance fitness
Q38P	-0.831 ± 0.069
Q38E	0.129 ± 0.054
Q38L	-0.112 ± 0.05
Q38M	0.007 ± 0.069
Q38I	-0.038 ± 0.11
Q38T	0.033 ± 0.053
Q38R	-0.028 ± 0.039
Q38V	-0.001 ± 0.048
Q38C	-0.019 ± 0.065
Q38H	0.095 ± 0.078
Q38Y	0.027 ± 0.097
Q38N	-0.025 ± 0.082
Q38A	0.02 ± 0.044
Q38G	-0.172 ± 0.042
Q38D	-0.112 ± 0.075
Q38K	-0.068 ± 0.067
Q38F	-0.075 ± 0.12
R49Q	-0.08 ± 0.057
R49N	-0.104 ± 0.13
R49A	-0.021 ± 0.057
R49P	-0.067 ± 0.059
R49S	-0.026 ± 0.052
R49H	0.025 ± 0.089
R49Y	-0.379 ± 0.13

Variant	abundance fitness
R49M	-0.127 ± 0.062
R49K	-0.092 ± 0.063
R49W	-0.202 ± 0.055
R49D	-0.386 ± 0.088
R49E	-0.267 ± 0.056
R49V	-0.139 ± 0.047
D42E	-0.007 ± 0.053
D42M	-0.15 ± 0.057
D42S	-0.038 ± 0.047
D42P	-0.006 ± 0.051
D42N	-0.069 ± 0.092
D42T	0.007 ± 0.053
D42L	-0.232 ± 0.045
D42K	-0.014 ± 0.067
D42W	-0.203 ± 0.055
D42R	-0.11 ± 0.039
D42G	-0.097 ± 0.042
D42Y	-0.061 ± 0.085
D42V	-0.125 ± 0.044
D42F	-0.163 ± 0.085
D42A	-0.013 ± 0.049
S50A	-0.04 ± 0.047
S50M	-0.125 ± 0.064
S50W	-0.118 ± 0.061

Variant	abundance fitness
S50E	-0.193 ± 0.059
S50L	-0.067 ± 0.045
S50I	0.126 ± 0.11
S50N	-0.085 ± 0.11
S50T	0.008 ± 0.055
S50Q	-0.139 ± 0.057
S50F	-0.218 ± 0.092
S50P	-0.159 ± 0.055
S50D	-0.289 ± 0.074
S50V	-0.002 ± 0.046
S50C	0.043 ± 0.071
S50Y	-0.137 ± 0.085
S50G	-0.071 ± 0.043
S50R	0.018 ± 0.042
S50K	0.044 ± 0.069
L46W	-0.171 ± 0.047
L46I	-0.145 ± 0.07
L46P	-0.145 ± 0.06
L46N	-0.144 ± 0.088
L46K	0.061 ± 0.063
L46H	-0.117 ± 0.085
L46S	0.004 ± 0.044
L46T	-0.002 ± 0.05
L46Y	-0.153 ± 0.074

Variant	abundance fitness
L46Q	-0.052 ± 0.06
L46C	0.031 ± 0.06
L46A	-0.056 ± 0.051
L46G	0.07 ± 0.039
L46D	-0.045 ± 0.06
L46F	-0.097 ± 0.067
L46M	-0.033 ± 0.055
L46V	-0.104 ± 0.042
L46E	-0.037 ± 0.049
S40G	-0.042 ± 0.037
S40V	0.025 ± 0.044
S40K	-0.007 ± 0.065
S40E	-0.013 ± 0.047
S40P	-0.011 ± 0.053
S40L	0.01 ± 0.049
S40C	-0.057 ± 0.067
S40A	0.027 ± 0.042
S40N	0.097 ± 0.089
S40W	-0.207 ± 0.055
S40Q	0.009 ± 0.055
S40M	-0.024 ± 0.068
S40H	-0.078 ± 0.072
S40D	-0.076 ± 0.067
S40I	-0.069 ± 0.095

Variant	abundance fitness
S40R	-0.029 ± 0.037
S40T	-0.059 ± 0.053
S40Y	-0.187 ± 0.089
I39A	-0.457 ± 0.05
I39K	-0.701 ± 0.087
I39F	-0.177 ± 0.09
I39W	-0.304 ± 0.055
I39R	-0.645 ± 0.044
I39Y	-0.386 ± 0.085
I39S	-0.572 ± 0.053
I39D	-0.515 ± 0.09
I39P	-0.477 ± 0.052
I39G	-0.648 ± 0.047
I39L	-0.091 ± 0.043
I39Q	-0.543 ± 0.064
I39N	-0.578 ± 0.11
I39E	-0.728 ± 0.076
I39V	-0.045 ± 0.046
I39C	-0.172 ± 0.075
V37M	-0.14 ± 0.065
V37F	-0.677 ± 0.1
V37E	-0.704 ± 0.064
V37A	-0.372 ± 0.048
V37P	-0.62 ± 0.065

Variant	abundance fitness
V37D	-0.597 ± 0.081
V37G	-0.905 ± 0.045
V37Q	-0.811 ± 0.081
V37I	-0.014 ± 0.07
V37S	-0.815 ± 0.057
V37C	-0.144 ± 0.068
V37T	-0.484 ± 0.069
V37K	-0.965 ± 0.089
V37N	-1.21 ± 0.17
V37Y	-0.974 ± 0.15
V37R	-0.804 ± 0.045
V37H	-0.962 ± 0.12
V37W	-0.916 ± 0.064
E48V	-0.103 ± 0.047
E48A	-0.063 ± 0.043
E48G	-0.044 ± 0.039
E48P	-0.065 ± 0.056
E48K	-0.158 ± 0.071
E48N	-0.161 ± 0.12
E48D	-0.033 ± 0.069
E48T	0.006 ± 0.048
E48I	-0.157 ± 0.085
E48H	-0.007 ± 0.076
E48S	-0.024 ± 0.045

Variant	abundance fitness
E48F	-0.109 ± 0.075
E48C	-0.169 ± 0.069
E48R	-0.12 ± 0.039
E48L	-0.12 ± 0.041
E48Y	0.103 ± 0.079
E48Q	-0.038 ± 0.059
E48M	-0.047 ± 0.057
L53S	-0.754 ± 0.061
L53V	-0.369 ± 0.047
L53D	-0.72 ± 0.1
L53T	-0.648 ± 0.062
L53A	-0.817 ± 0.056
L53Y	-1.04 ± 0.23
L53W	-0.994 ± 0.08
L53P	-0.998 ± 0.076
L53Q	-0.784 ± 0.083
L53C	-0.379 ± 0.082
L53F	-0.491 ± 0.11
L53R	-0.854 ± 0.048
L53H	-0.733 ± 0.12
L53N	-0.634 ± 0.18
L53K	-1 ± 0.098
L53E	-0.869 ± 0.063
L53I	-0.09 ± 0.11

Variant	abundance fitness
P41E	-0.04 ± 0.055
P41W	-0.299 ± 0.06
P41N	-0.141 ± 0.083
P41I	-0.024 ± 0.094
P41D	0.032 ± 0.087
P41L	-0.172 ± 0.048
P41F	-0.122 ± 0.095
P41A	0.007 ± 0.047
P41T	-0.05 ± 0.056
P41R	-0.061 ± 0.043
P41M	-0.09 ± 0.067
P41H	0.035 ± 0.091
P41Y	-0.099 ± 0.092
P41G	-0.055 ± 0.044
P41S	-0.017 ± 0.049
P41C	-0.017 ± 0.084
V51G	-0.832 ± 0.048
V51Q	-0.947 ± 0.11
V51M	-0.122 ± 0.065
V51A	-0.503 ± 0.045
V51F	-0.089 ± 0.088
V51R	-0.944 ± 0.054
V51P	-0.847 ± 0.08
V51T	-0.704 ± 0.068

Variant	abundance fitness
V51E	-0.84 ± 0.076
V51I	0.117 ± 0.085
V51L	0.019 ± 0.052
V51W	-0.487 ± 0.055
V51Y	-0.5 ± 0.1
V51D	-0.834 ± 0.083
V51H	-1.3 ± 0.23
V51C	-0.189 ± 0.075
V51S	-0.837 ± 0.067
G55K	-0.681 ± 0.093
G55A	-0.882 ± 0.064
G55F	-1.41 ± 0.28
G55H	-0.887 ± 0.12
G55E	-0.927 ± 0.09
G55D	-0.83 ± 0.087
G55C	-0.818 ± 0.1
G55I	-1.5 ± 0.28
S43I	-0.098 ± 0.086
S43N	-0.046 ± 0.075
S43G	-0.034 ± 0.041
S43Y	-0.189 ± 0.081
S43F	-0.328 ± 0.088
S43W	-0.212 ± 0.054
S43L	-0.116 ± 0.048

Variant	abundance fitness
S43R	-0.023 ± 0.041
S43P	-0.083 ± 0.044
S43Q	-0.027 ± 0.052
S43E	-0.082 ± 0.053
S43K	-0.1 ± 0.064
S43V	-0.11 ± 0.049
S43M	-0.101 ± 0.07
S43T	-0.012 ± 0.048
S43C	-0.135 ± 0.066
S43D	-0.031 ± 0.06
S43H	-0.113 ± 0.065
K36Y	-0.047 ± 0.11
K36H	-0.06 ± 0.074
K36S	-0.066 ± 0.048
K36D	0.021 ± 0.067
K36E	-0.036 ± 0.051
K36W	-0.283 ± 0.051
K36I	-0.095 ± 0.074
K36P	-0.918 ± 0.07
K36R	-0.058 ± 0.04
K36V	-0.001 ± 0.043
K36G	-0.431 ± 0.043
K36Q	-0.034 ± 0.059
K36F	-0.32 ± 0.081

Variant	abundance fitness
K36T	0.005 ± 0.056
K36L	-0.043 ± 0.047
K36M	-0.03 ± 0.059
K36N	0.073 ± 0.086
S52D	-0.312 ± 0.067
S52E	0 ± 0.048
S52Q	-0.011 ± 0.055
S52G	-0.249 ± 0.04
S52W	0.01 ± 0.05
S52V	0.041 ± 0.041
S52T	0.068 ± 0.049
S52F	0.007 ± 0.074
S52L	0.059 ± 0.041
S52N	-0.177 ± 0.093
S52I	0 ± 0.083
S52H	0.043 ± 0.075
S52M	0.047 ± 0.06
S52Y	0.097 ± 0.083
S52A	-0.094 ± 0.044
S52C	0.027 ± 0.058
S52P	-0.874 ± 0.065
S52R	0.01 ± 0.036
P47S	-0.021 ± 0.049
P47R	-0.104 ± 0.043

Variant	abundance fitness
P47Q	-0.034 ± 0.06
P47L	-0.094 ± 0.046
P47M	-0.009 ± 0.07
P47I	-0.168 ± 0.079
P47K	-0.016 ± 0.069
P47Y	-0.028 ± 0.09
P47A	0.02 ± 0.048
P47W	-0.32 ± 0.059
P47T	-0.018 ± 0.057
P47F	-0.14 ± 0.081
P47E	-0.06 ± 0.06
P47C	-0.014 ± 0.076
P47G	0.002 ± 0.048
P47D	-0.002 ± 0.072
P47N	-0.13 ± 0.096
P47V	-0.146 ± 0.057
G44Q	0.034 ± 0.062
G44Y	-0.084 ± 0.12
G44E	0.008 ± 0.054
G44R	-0.071 ± 0.04
G44H	-0.083 ± 0.069
G44M	0.007 ± 0.069
G44A	-0.051 ± 0.045
G44T	-0.017 ± 0.051

Variant	abundance fitness
G44V	-0.133 ± 0.045
G44K	0.019 ± 0.071
G44L	-0.125 ± 0.048
G44D	0.02 ± 0.066
G44S	-0.09 ± 0.047
G44I	-0.339 ± 0.13
G44P	-0.137 ± 0.054
G44C	-0.105 ± 0.068
G44W	-0.338 ± 0.06
G44F	-0.194 ± 0.096
G45F	-0.218 ± 0.081
G45V	-0.107 ± 0.046
G45S	-0.113 ± 0.05
G45R	-0.164 ± 0.042
G45N	-0.11 ± 0.076
G45Q	-0.1 ± 0.063
G45H	-0.011 ± 0.095
G45W	-0.351 ± 0.056
G45C	-0.168 ± 0.064
G45D	-0.102 ± 0.07
G45M	-0.208 ± 0.063
G45E	-0.064 ± 0.054
G45A	-0.211 ± 0.05
G45K	-0.207 ± 0.066

Variant	abundance fitness
G45Y	-0.299 ± 0.1
G45T	-0.079 ± 0.053
G45L	-0.193 ± 0.05
T54K	-0.16 ± 0.074
T54N	-0.327 ± 0.088
T54D	-0.424 ± 0.081
T54C	-0.2 ± 0.068
T54L	-0.256 ± 0.047
T54V	-0.058 ± 0.046
T54P	-0.855 ± 0.057
T54F	-0.278 ± 0.089
T54M	-0.182 ± 0.062
T54G	-0.586 ± 0.049
T54S	-0.059 ± 0.045
T54A	-0.255 ± 0.047
T54Q	-0.158 ± 0.06
T54E	-0.135 ± 0.054
T54I	-0.205 ± 0.078
T54Y	0.028 ± 0.092
T54R	-0.256 ± 0.041
T54W	-0.393 ± 0.061
T54H	-0.076 ± 0.077
